One may read the Kd as the free concentration of one partner at which half of the binding sites on the other are occupied at equilibrium, for simple one-to-one binding. A higher Kd goes with a looser complex. The term koff denotes the rate constant with which the complex falls apart. One may read the kon as the rate constant with which the complex forms. A low value points to slow association.

The record followed here is patent US20250230246A1 (SAMYANG BIOPHARM USA, published 2025).

Assay [1] deals with T1, Human CD32a (FcγRIIA) (human, UniProt P12318 34-217, limits assumed).
T1 sequence (looked up): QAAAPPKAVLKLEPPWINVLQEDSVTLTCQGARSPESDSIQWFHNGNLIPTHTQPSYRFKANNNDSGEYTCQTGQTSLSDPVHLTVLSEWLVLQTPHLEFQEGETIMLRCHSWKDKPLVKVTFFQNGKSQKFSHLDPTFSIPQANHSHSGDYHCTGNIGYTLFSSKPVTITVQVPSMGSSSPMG
Description: kinetic binding assay (ka, kd, Rmax in RU; method not named).

The target of assay [2] is T2, Human CD64 (FcγRI) (human, UniProt P12314 16-288, limits assumed). The description is as above.
The target of the next assay is MICA*008 (human). Described as above.
The target in another assay is MICB*005 (human). The description is as above.
The target in assay [3] is T1, Human CD32a (FcγRIIA). Nature of the assay: kinetic binding assay (Table 2); ND = not detectable.
Assay [4] deals with T2, Human CD64 (FcγRI). Described as above.

T2 sequence (P12314 16-288 limits assumed): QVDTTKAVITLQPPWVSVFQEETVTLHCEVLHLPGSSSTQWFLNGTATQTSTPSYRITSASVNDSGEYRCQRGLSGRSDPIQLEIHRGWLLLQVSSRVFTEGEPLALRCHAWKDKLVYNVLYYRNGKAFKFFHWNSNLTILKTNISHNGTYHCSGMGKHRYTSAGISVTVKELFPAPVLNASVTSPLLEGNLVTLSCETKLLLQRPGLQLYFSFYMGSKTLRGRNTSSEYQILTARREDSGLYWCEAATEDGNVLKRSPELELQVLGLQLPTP

B1: SYB-010 (antibody, human IgG1, kappa)
heavy: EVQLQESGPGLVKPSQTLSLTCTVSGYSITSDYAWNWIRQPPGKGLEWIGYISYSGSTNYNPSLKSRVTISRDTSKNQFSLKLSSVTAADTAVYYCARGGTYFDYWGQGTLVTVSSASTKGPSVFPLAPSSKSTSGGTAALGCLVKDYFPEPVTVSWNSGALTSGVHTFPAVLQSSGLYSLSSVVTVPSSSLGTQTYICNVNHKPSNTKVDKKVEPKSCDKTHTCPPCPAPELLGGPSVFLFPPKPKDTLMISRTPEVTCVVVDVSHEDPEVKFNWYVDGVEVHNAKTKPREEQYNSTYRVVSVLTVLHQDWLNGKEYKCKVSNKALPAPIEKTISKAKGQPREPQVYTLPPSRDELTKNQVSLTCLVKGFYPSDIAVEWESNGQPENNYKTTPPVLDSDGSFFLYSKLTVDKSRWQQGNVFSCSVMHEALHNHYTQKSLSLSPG
light: DVVMTQSPSTLSASVGDRVTITCRASAHINNWLAWYQQKPGKAPKLLISDATSLESGVPSRFSGSGSGKEYTLTISSLQPDDFATYYCQHYWSTPWTFGQGTKVEIKRTVAAPSVFIFPPSDEQLKSGTASVVCLLNNFYPREAKVQWKVDNALQSGNSQESVTEQDSKDSTYSLSSTLTLSKADYEKHKVYACEVTHQGLSSPVTKSFNRGEC
notes: also called SYB-010 Fc wildtype
Regarding B1, the Kd with Human CD32a (FcγRIIA) [1] was found to be 1540 nM; with Human CD64 (FcγRI) [2] it was 1.61 nM; in the assay with MICA*008 it was 0.98 nM; with MICB*005, 21 nM. Further, the koff with Human CD32a (FcγRIIA) [1] amounted to 0.772 s⁻¹; in the assay with Human CD64 (FcγRI) [2], 0.00133 s⁻¹; in the assay with MICA*008 it was 0.000627 s⁻¹; in the assay with MICB*005 it was 0.0394 s⁻¹. Moreover, the kon came out at 500000 M⁻¹ s⁻¹ with Human CD32a (FcγRIIA) [1], 825000 M⁻¹ s⁻¹ with Human CD64 (FcγRI) [2], 639000 M⁻¹ s⁻¹ in the assay with MICA*008 and 1.88e+06 M⁻¹ s⁻¹ with MICB*005.

B2: SYB-011 (antibody, human IgG1, kappa, L234A L235A)
heavy: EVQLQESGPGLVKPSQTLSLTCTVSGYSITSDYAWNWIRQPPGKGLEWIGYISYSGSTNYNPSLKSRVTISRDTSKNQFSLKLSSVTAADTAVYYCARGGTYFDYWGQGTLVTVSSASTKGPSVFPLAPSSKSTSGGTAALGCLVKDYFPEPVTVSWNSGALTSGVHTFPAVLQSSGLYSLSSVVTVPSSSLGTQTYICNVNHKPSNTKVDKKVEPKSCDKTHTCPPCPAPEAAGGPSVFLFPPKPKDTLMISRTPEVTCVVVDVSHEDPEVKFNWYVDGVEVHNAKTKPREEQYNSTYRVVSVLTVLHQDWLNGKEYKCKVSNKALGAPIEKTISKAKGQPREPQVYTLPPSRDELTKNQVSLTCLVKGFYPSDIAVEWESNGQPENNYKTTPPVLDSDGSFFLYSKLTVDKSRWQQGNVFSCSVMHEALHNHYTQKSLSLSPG
light: DVVMTQSPSTLSASVGDRVTITCRASAHINNWLAWYQQKPGKAPKLLISDATSLESGVPSRFSGSGSGKEYTLTISSLQPDDFATYYCQHYWSTPWTFGQGTKVEIKRTVAAPSVFIFPPSDEQLKSGTASVVCLLNNFYPREAKVQWKVDNALQSGNSQESVTEQDSKDSTYSLSSTLTLSKADYEKHKVYACEVTHQGLSSPVTKSFNRGEC
notes: Positions are EU index numbers; also called SYB-011 Fc mutant; effectorless anti-MIC antibody
In the case of B2, the binding result with Human CD32a (FcγRIIA) [3] is reported as “no binding”. In the assay with Human CD64 (FcγRI) [4], the binding result is listed as “no binding”. For the same molecule, in the assay with MICA*008, the Kd was found to be 1.04 nM, the koff worked out at 0.000617 s⁻¹ and the on-rate (kon) is 596000 M⁻¹ s⁻¹. Moreover, in the assay with MICB*005, the Kd came to 19.8 nM, the dissociation rate constant (koff) was 0.0939 s⁻¹ and the on-rate constant (kon) turned out to be 4.74e+06 M⁻¹ s⁻¹.
